Measured values from paper PMC5658516.

target: OTULIN-diUb adduct (endogenous OTULIN coupled to bio-Ub_(G76Dha)-Ub) (human (endogenous in HEK293 and Jurkat T cells) | not stated) (UniProt Q96BN8); test: pull-down; biotin-PD of the OTULIN-diUb adduct formed in extracts of transfected HEK293 cells or of Jurkat T cells (with or without TNF-α, 20 ng/mL) on streptavidin agarose, three washes with co-IP buffer; western blot of eluate, input and supernatant

percent of the protein removed from the extract by the biotin-PD [%] | Substance
25 | endogenous HOIL-1 (from UniProt Q9BYM8 1-510) (natural protein)
25 | endogenous HOIP (from UniProt Q96EP0 1-1072) (natural protein)
25 | endogenous SHARPIN (from UniProt Q9H0F6 1-387) (natural protein)
